Assay results: patent US20030082809A1 (University of California, published 2003)

What was measured:
Assay in all cases: cell-based or functional assay
[1] = target: GAD, GAL4-activation domain alone (UniProt P04386)
[2] = target: PIF3:GAD fusion protein (PIF3-GAL4-activation-domain fusion) (Arabidopsis) (UniProt O80536)
[3] = target: T1, PIF3:GAD fusion protein (PIF3-GAL4-activation-domain fusion) (Arabidopsis, UniProt O80536 1-524, limits assumed)
T1 sequence: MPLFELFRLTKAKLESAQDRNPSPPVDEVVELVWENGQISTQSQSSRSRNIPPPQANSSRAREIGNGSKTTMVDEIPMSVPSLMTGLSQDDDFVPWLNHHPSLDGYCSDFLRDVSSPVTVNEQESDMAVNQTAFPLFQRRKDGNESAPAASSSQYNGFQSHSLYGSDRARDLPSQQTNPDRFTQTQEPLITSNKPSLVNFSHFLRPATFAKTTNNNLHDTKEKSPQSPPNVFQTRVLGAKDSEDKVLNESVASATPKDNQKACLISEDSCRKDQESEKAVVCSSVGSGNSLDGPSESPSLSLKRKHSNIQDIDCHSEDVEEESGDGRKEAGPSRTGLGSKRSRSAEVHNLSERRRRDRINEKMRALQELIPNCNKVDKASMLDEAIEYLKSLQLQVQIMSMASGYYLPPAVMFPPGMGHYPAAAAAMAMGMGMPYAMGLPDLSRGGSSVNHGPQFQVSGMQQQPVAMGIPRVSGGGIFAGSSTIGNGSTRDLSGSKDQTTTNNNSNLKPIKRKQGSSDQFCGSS

Sequence of GAD, GAL4-activation domain alone (P04386 768-881 limits assumed): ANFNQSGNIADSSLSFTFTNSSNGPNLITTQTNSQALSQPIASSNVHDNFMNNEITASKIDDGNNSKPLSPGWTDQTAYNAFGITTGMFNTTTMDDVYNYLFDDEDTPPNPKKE

GBD, GAL4 DNA-binding domain alone (from UniProt P04386 1-147)
LacZ activity (M. U.), yeast two-hybrid liquid assay, Dark [1]: 0.1 M. U.
LacZ activity (M. U.), yeast two-hybrid liquid assay, Rp [1]: 0.2 M. U.
LacZ activity (M. U.), yeast two-hybrid liquid assay, Rp/FRp [1]: 0.2 M. U.

phyB(NT):GBD fusion protein, Pr form (PCB chromophore, in darkness or after far-red light) (from UniProt P14713 1-621; P04386 1-147)
LacZ activity (M. U.), yeast two-hybrid liquid assay, Dark [2]: 0.1 M. U.
LacZ activity (M. U.), yeast two-hybrid liquid assay, Rp/FRp (red pulse followed at once by far-red pulse) [2]: 0.1 M. U.

B1: phyB(NT):GBD fusion protein, Pfr form (PCB chromophore, after red light) (other, UniProt P14713 1-621, looked up)
chain: MVSGVGGSGGGRGGGRGGEEEPSSSHTPNNRRGGEQAQSSGTKSLRPRSNTESMSKAIQQYTVDARLHAVFEQSGESGKSFDYSQSLKTTTYGSSVPEQQITAYLSRIQRGGYIQPFGCMIAVDESSFRIIGYSENAREMLGIMPQSVPTLEKPEILAMGTDVRSLFTSSSSILLERAFVAREITLLNPVWIHSKNTGKPFYAILHRIDVGVVIDLEPARTEDPALSIAGAVQSQKLAVRAISQLQALPGGDIKLLCDTVVESVRDLTGYDRVMVYKFHEDEHGEVVAESKRDDLEPYIGLHYPATDIPQASRFLFKQNRVRMIVDCNATPVLVVQDDRLTQSMCLVGSTLRAPHGCHSQYMANMGSIASLAMAVIINGNEDDGSNVASGRSSMRLWGLVVCHHTSSRCIPFPLRYACEFLMQAFGLQLNMELQLALQMSEKRVLRTQTLLCDMLLRDSPAGIVTQSPSIMDLVKCDGAAFLYHGKYYPLGVAPSEVQIKDVVEWLLANHADSTGLSTDSLGDAGYPGAAALGDAVCGMAVAYITKRDFLFWFRSHTAKEIKWGGAKHHPEDKDDGQRMHPRSSFQAFLEVVKSRSQPWETAEMDAIHSLQLILRDSFKESMKLLSSIEQACDICRLKKLKCSKEKPKCAKCLKNNWECRYSPKTKRSPLTRAHLTEVESRLERLEQLFLLIFPREDLDMILKMDSLQDIKALLTGLFVQDNVNKDAVTDRLASVETDMPLTLRQHRISATSSSEESSNKGQRQLTVS
modifications: phycocyanobilin (PCB) chromophore attached to the phytochrome moiety (residue not stated); Pfr conformer after red light
LacZ activity, fold induction 5 min after a 1 min saturating red-light pulse [3]: 2 fold
LacZ activity, fold induction 10 min after a 1 min saturating red-light pulse [3]: 4 fold
LacZ activity, fold induction 30 min after a 1 min saturating red-light pulse [3]: 50 fold
induction of LacZ expression above background by a single red-light pulse [3]: 1000 fold
